Measured values: article PMC13581288, “The chromokinesin Kid (KIF22) forms a homodimer, moves processively along microtubules, and transports double-stranded DNA” (eLife, 2024)

B1: full-length human Kid tagged with mNeonGreen (hKidFL-mNeonGreen) (natural protein, UniProt Q14807 1-665, looked up)
chain: MAAGGSTQQRRREMAAASAAAISGAGRCRLSKIGATRRPPPARVRVAVRLRPFVDGTAGASDPPCVRGMDSCSLEIANWRNHQETLKYQFDAFYGERSTQQDIYAGSVQPILRHLLEGQNASVLAYGPTGAGKTHTMLGSPEQPGVIPRALMDLLQLTREEGAEGRPWALSVTMSYLEIYQEKVLDLLDPASGDLVIREDCRGNILIPGLSQKPISSFADFERHFLPASRNRTVGATRLNQRSSRSHAVLLVKVDQRERLAPFRQREGKLYLIDLAGSEDNRRTGNKGLRLKESGAINTSLFVLGKVVDALNQGLPRVPYRDSKLTRLLQDSLGGSAHSILIANIAPERRFYLDTVSALNFAARSKEVINRPFTNESLQPHALGPVKLSQKELLGPPEAKRARGPEEEEIGSPEPMAAPASASQKLSPLQKLSSMDPAMLERLLSLDRLLASQGSQGAPLLSTPKRERMVLMKTVEEKDLEIERLKTKQKELEAKMLAQKAEEKENHCPTMLRPLSHRTVTGAKPLKKAVVMPLQLIQEQAASPNAEIHILKNKGRKRKLESLDALEPEEKAEDCWELQISPELLAHGRQKILDLLNEGSARDLRSLQRIGPKKAQLIVGWRELHGPFSQVEDLERVEGITGKQMESFLKANILGLAAGQRCGAS
notes: Kid (KIF22), human, full length; cDNA corresponding to GenBank DQ895829.2; also called hKid-mNeonGreen; hKidFL-mNG; not shown: mNeonGreen, C-terminal, kept
B2: XKid(1-496)-mScarlet (domain or fragment, Xenopus, UniProt Q9I869 1-496, looked up)
chain: MVLTGPLQRESVSMAKRVSMLDQHKKSSCARVRVAVRLRPYMDEKDEAKATTVCVRGLDSQSLEIVNWRNQLETMQYQFDAFYGDSASQREIYMGSVCHILPHLLIGQNASVFAYGPTGAGKTHTMLGNPNQPGVIPRAVRDLLQMSRTAASAPENENWTYTINMSYVEIYQEKVMDLLEPKNKDLPIREDKDHNILIPGVTQKMINSFADFDEHFIPASQNRTVASTKLNDRSSRSHAVLLIKVQKSQQVVPFRQLTGKLYLIDLAGSEDNRRTGNQGIRLKESGAINSSLFTLSKVVDALNQGLPRIPYRDSKLTRLLQDSLGGSAHSVMITNIAPEQTYYFDTLTALNFAAKSKQIINKPFSQETTQTVVQPAMKRPREETGHIAGSQKRKKSKNDSTESSPNSSMDTAGKQKLNLATLDPAVVERLLKLDKILTEKGKKKAQLLSTPKRERMALLKKWEESQMEIERLKEKQKELEQKAMEAEARLEKSNNS
notes: deletion mutant made by PCR-based mutagenesis; also called XKid(1-497); not shown: mScarlet, C-terminal, kept
B3: KIF1A(1-393)LZ (other)
chain: MAGASVKVAVRVRPFNSREMSRDSKCIIQMSGSTTTIVNPKQPKETPKSFSFDYSYWSHTSPEDINYASQKQVYRDIGEEMLQHAFEGYNVCIFAYGQTGAGKSYTMMGKQEKDQQGIIPQLCEDLFSRINDTTNDNMSYSVEVSYMEIYCERVRDLLNPKNKGNLRVREHPLLGPYVEDLSKLAVTSYNDIQDLMDSGNKARTVAATNMNETSSRSHAVFNIIFTQKRHDAETNITTEKVSKISLVDLAGSERADSTGAKGTRLKEGANINKSLTTLGKVISALAEMDSGPNKNKKKKKTDFIPYRDSVLTWLLRENLGGNSRTAMVAALSPADINYDETLSTLRYADRAKQIRCNAVINEDPNNKLIRELKDEVTRLRDLLYAQGLGDITDLEDKVEELLSKNYHLENEVARL
B4: full-length Xenopus Kid tagged with mScarlet (XKidFL-mScarlet) (natural protein, UniProt Q9I869 1-651, looked up)
chain: MVLTGPLQRESVSMAKRVSMLDQHKKSSCARVRVAVRLRPYMDEKDEAKATTVCVRGLDSQSLEIVNWRNQLETMQYQFDAFYGDSASQREIYMGSVCHILPHLLIGQNASVFAYGPTGAGKTHTMLGNPNQPGVIPRAVRDLLQMSRTAASAPENENWTYTINMSYVEIYQEKVMDLLEPKNKDLPIREDKDHNILIPGVTQKMINSFADFDEHFIPASQNRTVASTKLNDRSSRSHAVLLIKVQKSQQVVPFRQLTGKLYLIDLAGSEDNRRTGNQGIRLKESGAINSSLFTLSKVVDALNQGLPRIPYRDSKLTRLLQDSLGGSAHSVMITNIAPEQTYYFDTLTALNFAAKSKQIINKPFSQETTQTVVQPAMKRPREETGHIAGSQKRKKSKNDSTESSPNSSMDTAGKQKLNLATLDPAVVERLLKLDKILTEKGKKKAQLLSTPKRERMALLKKWEESQMEIERLKEKQKELEQKAMEAEARLEKSNNSDLSDSSVSENTFRAPLRGRNTSTAKVKKVLRVLPMQGNSQLQSTVEEGIPVFEKKKKKKQVTCEGLENQPTWEMNMRTDLLESGKERILKLLNTGSVKELKSLQRIGDKKAKLIIGWREVNGPFKNVEELACLEGISAKQVSSFIKANIMSSIAS
notes: Kid (Kif22.S), Xenopus, full length; cDNA corresponding to GenBank BC070549.1; also called XKid-mScarlet; Full-length XKid; not shown: mScarlet, C-terminal, kept

What was measured:
[1] = biological target: KIF1AMD-XKidSt (chimera of the KIF1A motor domain with the neck linker and coiled-coil domain of XKid) (not stated | Xenopus); experiment: SEC; Superdex 200 Increase 10/300 GL on an NGC system; micromolar protein concentrations; UNC-104(1-653)-sfGFP (or mScarlet for XKidCC-mScarlet) run as size marker
[2] = biological target: the molecule itself; experiment: as above

Row | Molecule | stoichiometry N [1] | stoichiometry N [2]
1 | KIF1AMD-XKidSt (chimera of the KIF1A motor domain with the neck linker and coiled-coil domain of XKid) | 2 | 
2 | B1 |  | 2
3 | B2 |  | 2
4 | B3 |  | 2
5 | B4 |  | 2
